Measurements as given in patent publication US20260055369A1 (H LEE MOFFITT CANCER CENTER AND RESEARCH INSTITUTE, published 2026).
Substitutions are numbered along the chain they refer to.

Assays:
[1] = target: T1, Notch1 on CHO-K1 N1-Gal4 fluorescent reporter cells (UniProt P46531 19-2555, limits assumed); assay: cell-based or functional assay
[2] = target: Notch1 on U2OS hNotch1-Gal4 luciferase reporter cells (human, UniProt P46531 19-2555); assay: cell-based or functional assay
[3] = target: Notch3 on U2OS Notch3-Gal4 luciferase reporter cells (human, UniProt Q9UM47 40-2321); assay: cell-based or functional assay
[4] = target: Notch2 on U2OS Notch2-Gal4 luciferase reporter cells (human, UniProt Q04721 26-2471); assay: cell-based or functional assay
[5] = target: T1, Notch1 on CHO-K1 N1-Gal4 fluorescent …; assay: flow cytometry, ligand tetramers on Notch1-overexpressing CHO-K1 N1-Gal4 cells
[6] = target: T2, mouse Notch1 (EGF6-13, residues 221-526), biotinylated (mouse, UniProt Q01705 221-526, Biotinylated in vitro by BirA at the C-terminal BAP-tag (tag not in the letters).); assay: SPR steady-state binding isotherm, biotinylated mNotch1 (EGF6-13) on a streptavidin chip, DLL4 variant as analyte, response normalized to the maximum (100%)
T2 construct: Immobilised on a streptavidin chip for SPR; also called mNotch1 EGF6-13; mNotch1 (6-13)
T2 sequence: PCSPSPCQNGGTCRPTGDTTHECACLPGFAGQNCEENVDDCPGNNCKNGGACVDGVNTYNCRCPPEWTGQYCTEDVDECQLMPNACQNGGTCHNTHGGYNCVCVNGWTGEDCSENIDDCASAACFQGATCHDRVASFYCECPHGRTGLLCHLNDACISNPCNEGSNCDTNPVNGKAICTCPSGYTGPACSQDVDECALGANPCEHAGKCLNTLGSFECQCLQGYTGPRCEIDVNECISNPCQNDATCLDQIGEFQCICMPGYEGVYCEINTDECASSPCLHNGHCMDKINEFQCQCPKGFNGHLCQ
Excerpt: Extended Data FIG. 5. Quantitation of mNotch1 binding to DLL4 variants, ligand adsorption, and Notch surface expression. a, SPR binding isotherms were fitted to a 1:1 binding model to determine the binding affinity between mNotch1 (6-13) and each DLL4 variant. b, Determination of plate adsorption for WT DLL4 and Delta^MAX by ELISA. Data represent mean values±s.d. of three biological replicates. c, Binding assay of WT DLL4 and Delta^MAX tetramers to Notch1 overexpressing CHO-K1 N1-Gal4 cells was measured by flow cytometry. Data represent mean values±s.d. of three biological replicates. d, The level of Notch1 expression on the surface of cell lines used in this study was determined by flow cytometry. Data represent mean values±s.d. of three biological replicates. e, Percentage of CD8⁺ T cells expressing Notch1 (upper graph) and Notch2 (bottom graph) on cell surface determined by flow cytometry after stimulation with K32-WT DLL4, K32-Delta^MAX, or K32 for 96 hours. Data represent mean values±s.e.m. of three biological replicates. Delta^MAX statistics are referred to WT DLL4. *P<0.05, ****P<0.0001 (Two-way ANOVA).
Equilibrium dissociation constants were determined by surface plasmon resonance using a Biacore T200 instrument (GE Healthcare). […]

Sequence of Notch1 on U2OS hNotch1-Gal4 luciferase reporter cells (P46531 19-2555): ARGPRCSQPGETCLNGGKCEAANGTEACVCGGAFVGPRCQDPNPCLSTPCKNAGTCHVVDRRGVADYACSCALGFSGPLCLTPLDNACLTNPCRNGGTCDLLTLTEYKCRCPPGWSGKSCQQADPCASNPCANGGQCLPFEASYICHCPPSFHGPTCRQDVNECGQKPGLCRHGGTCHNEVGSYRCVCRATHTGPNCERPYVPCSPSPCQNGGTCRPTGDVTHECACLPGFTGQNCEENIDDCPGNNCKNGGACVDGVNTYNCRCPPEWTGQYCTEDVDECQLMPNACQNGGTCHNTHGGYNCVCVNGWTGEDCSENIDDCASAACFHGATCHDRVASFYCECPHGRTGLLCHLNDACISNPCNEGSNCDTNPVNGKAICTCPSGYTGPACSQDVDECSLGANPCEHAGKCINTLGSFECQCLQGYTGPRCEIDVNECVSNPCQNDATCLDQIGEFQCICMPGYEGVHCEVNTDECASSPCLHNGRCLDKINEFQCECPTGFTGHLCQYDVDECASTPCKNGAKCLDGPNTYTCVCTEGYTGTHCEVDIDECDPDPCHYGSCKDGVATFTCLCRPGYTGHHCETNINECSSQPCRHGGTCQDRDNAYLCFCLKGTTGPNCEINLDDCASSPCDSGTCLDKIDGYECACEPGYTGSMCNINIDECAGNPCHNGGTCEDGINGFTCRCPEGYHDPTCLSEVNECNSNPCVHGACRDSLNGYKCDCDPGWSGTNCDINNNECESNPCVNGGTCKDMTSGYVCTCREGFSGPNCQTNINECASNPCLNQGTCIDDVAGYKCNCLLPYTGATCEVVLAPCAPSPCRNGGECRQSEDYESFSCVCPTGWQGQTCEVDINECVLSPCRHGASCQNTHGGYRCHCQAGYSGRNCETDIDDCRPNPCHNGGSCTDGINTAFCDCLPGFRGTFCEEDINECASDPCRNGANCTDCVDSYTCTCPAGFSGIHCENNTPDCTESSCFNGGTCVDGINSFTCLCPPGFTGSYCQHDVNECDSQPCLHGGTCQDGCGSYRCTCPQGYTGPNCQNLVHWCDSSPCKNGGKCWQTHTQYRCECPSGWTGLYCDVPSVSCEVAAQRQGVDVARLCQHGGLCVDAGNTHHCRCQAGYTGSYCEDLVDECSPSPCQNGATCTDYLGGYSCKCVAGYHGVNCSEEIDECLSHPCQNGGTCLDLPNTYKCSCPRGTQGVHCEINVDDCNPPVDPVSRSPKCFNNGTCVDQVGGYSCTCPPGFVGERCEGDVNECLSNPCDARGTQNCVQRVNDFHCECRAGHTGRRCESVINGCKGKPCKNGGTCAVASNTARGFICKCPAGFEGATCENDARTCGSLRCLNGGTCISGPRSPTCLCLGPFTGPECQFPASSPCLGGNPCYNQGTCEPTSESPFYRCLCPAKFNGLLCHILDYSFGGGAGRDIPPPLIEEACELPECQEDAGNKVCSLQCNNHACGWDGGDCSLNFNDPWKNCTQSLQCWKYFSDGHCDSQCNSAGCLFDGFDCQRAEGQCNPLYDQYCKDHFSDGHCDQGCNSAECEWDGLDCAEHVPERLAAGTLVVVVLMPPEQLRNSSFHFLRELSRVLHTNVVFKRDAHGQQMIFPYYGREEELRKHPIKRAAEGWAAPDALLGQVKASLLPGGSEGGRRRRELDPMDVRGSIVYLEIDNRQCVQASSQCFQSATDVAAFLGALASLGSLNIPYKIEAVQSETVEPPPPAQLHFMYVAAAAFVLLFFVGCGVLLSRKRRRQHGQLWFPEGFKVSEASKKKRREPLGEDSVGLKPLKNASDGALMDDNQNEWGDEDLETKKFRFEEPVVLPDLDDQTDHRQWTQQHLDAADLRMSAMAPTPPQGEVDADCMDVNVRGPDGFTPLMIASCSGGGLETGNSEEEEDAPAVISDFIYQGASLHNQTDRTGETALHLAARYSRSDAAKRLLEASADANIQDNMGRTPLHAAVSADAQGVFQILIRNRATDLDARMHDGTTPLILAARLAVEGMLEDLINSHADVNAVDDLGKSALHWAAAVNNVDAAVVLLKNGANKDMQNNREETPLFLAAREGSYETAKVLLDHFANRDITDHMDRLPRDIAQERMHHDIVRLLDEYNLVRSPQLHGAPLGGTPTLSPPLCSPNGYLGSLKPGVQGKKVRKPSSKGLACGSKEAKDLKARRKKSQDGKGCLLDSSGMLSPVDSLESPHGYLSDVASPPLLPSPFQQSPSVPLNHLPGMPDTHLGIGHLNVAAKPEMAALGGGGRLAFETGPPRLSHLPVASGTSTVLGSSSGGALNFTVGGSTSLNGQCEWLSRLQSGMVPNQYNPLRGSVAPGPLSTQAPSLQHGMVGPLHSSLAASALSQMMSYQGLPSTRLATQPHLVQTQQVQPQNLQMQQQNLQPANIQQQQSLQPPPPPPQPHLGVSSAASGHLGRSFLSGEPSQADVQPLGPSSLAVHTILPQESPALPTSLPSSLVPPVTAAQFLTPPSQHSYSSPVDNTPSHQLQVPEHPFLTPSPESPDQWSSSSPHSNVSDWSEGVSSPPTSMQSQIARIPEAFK
T1 sequence (P46531 19-2555 limits assumed): as the sequence (P46531 19-2555) above
Sequence of Notch3 on U2OS Notch3-Gal4 luciferase reporter cells (Q9UM47 40-2321): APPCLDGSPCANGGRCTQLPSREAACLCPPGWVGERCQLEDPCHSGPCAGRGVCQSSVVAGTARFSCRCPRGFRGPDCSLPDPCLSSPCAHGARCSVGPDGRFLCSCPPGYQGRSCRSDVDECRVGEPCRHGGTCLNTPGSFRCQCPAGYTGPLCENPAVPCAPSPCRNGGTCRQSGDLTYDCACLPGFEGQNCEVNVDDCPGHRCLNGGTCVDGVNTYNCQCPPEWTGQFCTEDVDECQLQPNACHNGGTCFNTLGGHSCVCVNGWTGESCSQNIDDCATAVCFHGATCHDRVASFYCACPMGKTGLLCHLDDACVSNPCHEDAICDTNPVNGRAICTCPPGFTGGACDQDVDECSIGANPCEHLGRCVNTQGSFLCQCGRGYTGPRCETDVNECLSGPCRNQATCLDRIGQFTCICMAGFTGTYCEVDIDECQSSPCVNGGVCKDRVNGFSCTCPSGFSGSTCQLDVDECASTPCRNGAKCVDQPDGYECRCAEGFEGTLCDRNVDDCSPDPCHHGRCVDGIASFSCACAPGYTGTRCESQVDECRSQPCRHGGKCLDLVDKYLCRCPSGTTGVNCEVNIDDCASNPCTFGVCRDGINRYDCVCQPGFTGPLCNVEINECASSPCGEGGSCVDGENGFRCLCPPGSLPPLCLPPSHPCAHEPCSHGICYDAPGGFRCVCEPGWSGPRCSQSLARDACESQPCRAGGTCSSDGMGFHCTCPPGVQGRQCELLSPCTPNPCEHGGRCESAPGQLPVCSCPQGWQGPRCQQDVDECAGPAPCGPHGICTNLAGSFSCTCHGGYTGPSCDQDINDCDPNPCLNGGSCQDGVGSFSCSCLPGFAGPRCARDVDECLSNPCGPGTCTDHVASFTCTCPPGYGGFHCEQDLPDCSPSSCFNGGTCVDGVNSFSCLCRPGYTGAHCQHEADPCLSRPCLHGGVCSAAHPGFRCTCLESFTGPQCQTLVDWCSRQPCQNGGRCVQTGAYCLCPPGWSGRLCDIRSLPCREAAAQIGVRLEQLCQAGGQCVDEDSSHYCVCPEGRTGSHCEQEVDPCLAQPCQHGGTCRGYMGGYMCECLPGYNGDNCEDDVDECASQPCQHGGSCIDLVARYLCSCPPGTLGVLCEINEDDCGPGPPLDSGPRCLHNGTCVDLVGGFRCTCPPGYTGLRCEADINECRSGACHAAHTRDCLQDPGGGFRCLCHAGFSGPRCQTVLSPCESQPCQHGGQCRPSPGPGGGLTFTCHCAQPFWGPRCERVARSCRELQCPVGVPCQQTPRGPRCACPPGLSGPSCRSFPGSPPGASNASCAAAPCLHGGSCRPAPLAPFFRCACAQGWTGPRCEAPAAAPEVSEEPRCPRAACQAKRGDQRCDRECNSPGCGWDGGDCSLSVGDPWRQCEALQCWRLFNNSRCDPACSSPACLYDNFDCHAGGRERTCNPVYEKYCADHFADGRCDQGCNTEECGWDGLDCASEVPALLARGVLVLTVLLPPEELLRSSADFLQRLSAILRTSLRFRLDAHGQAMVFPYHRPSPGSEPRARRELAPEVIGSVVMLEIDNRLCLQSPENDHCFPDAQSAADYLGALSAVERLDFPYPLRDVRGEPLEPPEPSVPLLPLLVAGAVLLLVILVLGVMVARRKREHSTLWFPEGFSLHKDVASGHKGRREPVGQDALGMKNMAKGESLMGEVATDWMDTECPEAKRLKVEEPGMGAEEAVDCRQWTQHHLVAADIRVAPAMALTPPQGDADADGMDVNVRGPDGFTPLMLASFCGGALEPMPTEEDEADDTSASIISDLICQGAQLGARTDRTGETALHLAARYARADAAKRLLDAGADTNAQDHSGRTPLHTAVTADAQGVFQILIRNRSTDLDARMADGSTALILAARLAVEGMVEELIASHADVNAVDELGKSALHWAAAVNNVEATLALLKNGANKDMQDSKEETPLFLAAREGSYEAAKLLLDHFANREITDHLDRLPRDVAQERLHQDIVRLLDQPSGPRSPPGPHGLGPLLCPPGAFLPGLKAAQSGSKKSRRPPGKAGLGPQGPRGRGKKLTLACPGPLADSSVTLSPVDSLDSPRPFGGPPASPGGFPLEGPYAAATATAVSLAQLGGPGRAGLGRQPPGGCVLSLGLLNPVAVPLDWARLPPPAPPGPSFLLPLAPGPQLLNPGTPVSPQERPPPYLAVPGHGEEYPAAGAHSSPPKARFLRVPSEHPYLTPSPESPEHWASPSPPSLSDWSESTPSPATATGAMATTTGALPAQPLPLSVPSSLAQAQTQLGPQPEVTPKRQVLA

B1: WT DLL4 (N-EGF5, residues 27-400), C-terminally biotinylated (ligand)
chain: SGVFQLQLQEFINERGVLASGRPCEPGCRTFFRVCLKHFQAVVSPGPCTFGTVSTPVLGTNSFAVRDDSSGGGRNPLQLPFNFTWPGTFSLIIEAWHAPGDDLRPEALPPDALISKIAIQGSLAVGQNWLLDEQTSTLTRLRYSYRVICSDNYYGDNCSRLCKKRNDHFGHYVCQPDGNLSCLPGWTGEYCQQPICLSGCHEQNGYCSKPAECLCRPGWQGRLCNECIPHNGCRHGTCSTPWQCTCDEGWGGLFCDQDLNYCTHHSPCKNGATCSNSGQRSYTCTCRPGYTGVDCELELSECDSNPCRNGGSCKDQEDGYHCLCPPGYYGLHCEHSTLSCADSPCFNGGSCRERNQGANYACECPPNFTGSNCEGLNDIFEAQKIEWHE
modifications: biotin on the C-terminal BAP-tag (BirA ligase)
- EC50 of Notch1 activation, fluorescent reporter cells, biotinylated ligand on streptavidin plates [1]: 16 nM

B2: DLL4^MAX (N-EGF5, residues 27-400), C-terminally biotinylated (ligand)
chain: B1 chain with G2S, F81L, I117F, H168Y, L180P, N231P, T245L, F254Y, S275R, Q279P
modifications: biotin on the C-terminal BAP-tag (BirA ligase)
notes: Used coupled to streptavidin (plates, beads, or as tetramers for cell staining); also called biotinylated Delta^MAX; C-terminally anchored Delta^MAX; not shown: His-tag
- increase in Notch1 activation relative to control, Delta^MAX-coated streptavidin beads [2]: 21 fold
- increase in Notch1 activation relative to control, oriented coupling on streptavidin plates [2]: 50 fold
- luciferase reporter signalling at 50 nM immobilised ligand, against WT DLL4 [2]: 2 fold
- luciferase reporter signalling at 50 nM immobilised ligand, against WT DLL4 [3]: 3 fold
- EC50 of Notch1 activation, fluorescent reporter cells, biotinylated ligand on streptavidin plates [1]: 1.7 nM
- Notch1 reporter activity with 25 µm coated beads, against DLL4 microbeads [1]: 4.5 fold
- luciferase reporter signalling at 50 nM immobilised ligand, against WT DLL4 [4]: 2.5 fold
- fold increase of MFI compared to WT DLL4 [5]: 4.7 fold

B3: human wild-type DLL4 (N-EGF5, residues 27-400), non-biotinylated (ligand)
chain: SGVFQLQLQEFINERGVLASGRPCEPGCRTFFRVCLKHFQAVVSPGPCTFGTVSTPVLGTNSFAVRDDSSGGGRNPLQLPFNFTWPGTFSLIIEAWHAPGDDLRPEALPPDALISKIAIQGSLAVGQNWLLDEQTSTLTRLRYSYRVICSDNYYGDNCSRLCKKRNDHFGHYVCQPDGNLSCLPGWTGEYCQQPICLSGCHEQNGYCSKPAECLCRPGWQGRLCNECIPHNGCRHGTCSTPWQCTCDEGWGGLFCDQDLNYCTHHSPCKNGATCSNSGQRSYTCTCRPGYTGVDCELELSECDSNPCRNGGSCKDQEDGYHCLCPPGYYGLHCEHSTLSCADSPCFNGGSCRERNQGANYACECPPNFTGSNCEHHHHHHHH
- EC50 of Notch1 activation, fluorescent reporter cells, ligand non-specifically adsorbed to plates [1]: 2.3 ng/mm^2

B4: DLL4.v1 (N-EGF5), non-biotinylated (ligand)
chain: B3 chain with G2S, F81L, I117F, H168Y, L180P
notes: also called human DLL4 with the five E12 mutations (Site 1+Site 2)
- EC50 (read off the curve) [6]: ~100 nM
